T1: human CD138 protein (human, UniProt P18827 23-310)
T1 sequence: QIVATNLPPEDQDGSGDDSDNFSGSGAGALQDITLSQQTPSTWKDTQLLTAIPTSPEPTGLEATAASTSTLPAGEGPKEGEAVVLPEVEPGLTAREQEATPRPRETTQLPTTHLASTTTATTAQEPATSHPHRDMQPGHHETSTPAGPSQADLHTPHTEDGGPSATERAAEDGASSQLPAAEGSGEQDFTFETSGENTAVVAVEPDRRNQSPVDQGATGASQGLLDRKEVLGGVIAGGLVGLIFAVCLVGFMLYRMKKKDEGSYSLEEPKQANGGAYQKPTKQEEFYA


Experiments:
human CD138 protein [1] = target: T1, human CD138 protein; assay: cell-based or functional assay
human CD138 protein [2] = target: T1, human CD138 protein; assay: flow cytometry on AsPC-1 cells (legend of Figure 1)
human CD138 protein [3] = target: T1, human CD138 protein; assay: flow cytometry on AsPC-1 cells, 0.001 to 100 ug/ml, anti-human IgG Fc-APC

Binder | IC50 (ng/ml), cytotoxicity, Capan-1 (CD138-positive), CellTiter-Glo 2.0 (human CD138 protein [1]) [ng/mL] | other results
Antibody-drug conjugate 10 (ADC10) (antibody, human IgG1, kappa, L234A L235A, V domains shown, MC-VC-PAB-MMAE on cysteine sulfhydryls after TCEP reduction of hinge disulfide bonds; positions not given; DAR 7.8) VH: QVQLVQSGAEVKKPGSSVKVSCKASGYTFSNYWIEWVRQAPGQGLEWIGEILPGTGRTIYNEKFKGRATFTADESTSTAYMELSSLRSEDTAVYYCARRDYYGNFYYAMDYWGQGTLVTVSS VL: DIQMTQSPSSLSASVGDRVTITCSASQGINNYLNWYQQKPGKAPKLLIYYTSTLQSGVPSRFSGSGSGTDYTLTISSLQPEDFATYYCQQYSKLPRTFGGGTKVEIKR | 29 | –
Antibody 5 (antibody, human IgG1, kappa, L234A L235A, V domains shown, Humanized; also called anti-CD138 antibody) VH: QVQLVQSGAEVKKPGSSVKVSCKASGYTFSNYWIEWVRQAPGQGLEWIGEILPGTGRTIYNEKFKGRATFTADESTSTAYMELSSLRSEDTAVYYCARRDYYGNFYYAMDYWGQGTLVTVSS VL: DIQMTQSPSSLSASVGDRVTITCSASQGINNYLNWYQQKPGKAPKLLIYYTSTLQSGVPSRFSGSGSGTDYTLTISSLQPEDFATYYCQQYSKLPRTFGGGTKVEIKR | – | binding result (human CD138 protein [2]): binds
Antibody-drug conjugate 3 (ADC3) (antibody, V domains shown, MC-VC-PAB-MMAE on cysteine sulfhydryls after TCEP reduction of hinge disulfide bonds; positions not given; DAR 7.1) VH: QVQLQQSGSELMMPGASVKISCKATGYTFSNYWIEWVKQRPGHGLEWIGEILPGTGRTIYNEKFKGKATFTADISSNTVQMQLSSLTSEDSAVYYCARRDYYGNFYYAMDYWGQGTLVTVSS VL: DIQMTQSTSSLSASLGDRVTISCSASQGINNYLNWYQQKPDGTVELLIYYTSTLQSGVPSRFSGSGSGTDYSLTISNLEPEDIGTYYCQQYSKLPRTFGGGTKLEIKR | 13 | –
Antibody 1 (antibody, V domains shown, expressed in HEK293 cells; Same light chain as Antibody 2 (nBT062); also called anti-CD138 antibody) VH: QVQLQQSGSELMMPGASVKISCKATGYTFSNYWIEWVKQRPGHGLEWIGEILPGTGRTIYNEKFKGKATFTADISSNTVQMQLSSLTSEDSAVYYCARRDYYGNFYYAMDYWGQGTLVTVSS VL: DIQMTQSTSSLSASLGDRVTISCSASQGINNYLNWYQQKPDGTVELLIYYTSTLQSGVPSRFSGSGSGTDYSLTISNLEPEDIGTYYCQQYSKLPRTFGGGTKLEIKR | – | binding result (human CD138 protein [3]): binds
Antibody-drug conjugate 4 (ADC4) (antibody, human IgG1, kappa, V domains shown, MC-VC-PAB-MMAF on cysteine sulfhydryls after TCEP reduction of hinge disulfide bonds; positions not given; DAR 2.2) VH: QVQLQQSGSELMMPGASVKISCKATGYTFSNYWIEWVKQRPGHGLEWIGEILPGTGRTIYNEKFKGKATFTADISSNTVQMQLSSLTSEDSAVYYCARRDYYGNFYYAMDYWGQGTLVTVSS VL: DIQMTQSTSSLSASLGDRVTISCSASQGINNYLNWYQQKPDGTVELLIYYTSTLQSGVPSRFSGSGSGTDYSLTISNLEPEDIGTYYCQQYSKLPRTFGGGTKLEIKR | 165 | –

Reference: patent publication EP4674438A1, “ANTIBODY-DRUG CONJUGATE CONTAINING ANTI-CD138 ANTIBODY” (priority 2023, dated 2024)
